pKi: −log10 of the molar value.

This test addresses bact sCRFR2α (mouse soluble CRF receptor type 2α, amino acids 20-143, purified from E. coli) (mouse). Nature of the test: radioreceptor assay, displacement of [125I-DTyr0]-astressin from purified sCRFR2α.

In turn, Astressin (peptide) showed a pKi of 8.00.

The values are drawn from US20070042954A1.
